Results from patent publication US20110217237A1 (AbbVie / Abbott, published 2011).
Where a chain is given by its changes, count along the chain named. Like-named read-outs stand apart in the source and are kept apart here.

Columns and labels:
[1] = molecular target: T1, human DLL4, full length, on cells (human, UniProt Q9NR61 27-685); assay: FACS, DLL4 cells
T1 construct: also called huDLL4 cells; human DLL4-293G

[2] = molecular target: T1, human DLL4, full length, on cells; assay: competition FACS: huNotch-1 to DLL4 cells
Method: Notch blocking assay: Briefly, stable cell lines overexpressing cell-surface DLL4 were harvested from tissue culture flasks and re-suspended in phosphate buffered saline (PBS) containing 1% bovine serum albumin and 1 mM CaCl₂ (FACS buffer). HEK293G-DLL4 cells were dispensed into 96-well plate (v-bottom) at 1.5×10⁵ cells/well in FACS buffer. After spinning down cells and discarding the supernatant, 50 μL of purified IgG with appropriate dilution were added to each well, and incubated on ice at 4° C. for 60 minutes, followed by addition of 50 μL/well of Notch1-biotin at 0.2 μg/mL for human DLL4-293G or 2.0 μg/mL for mouse DLL4-293G (1.0 or 0.1 μg/mL final) for an additional 1 hour incubation ice at 4° C. After washing the cells two times with FACS buffer, 50 μL of R-phycoerythrin-conjugated streptavidin (1:150 dilution in FACS buffer) (Jackson ImmunoResearch, West Grove, Pa., Cat.#016-110-084) were added. Following an incubation on ice (4° C., 60 minutes), cells were washed three times and resuspended in FACS buffer. Fluorescence was measured using a Becton Dickinson FACSCalibur-HTS (Becton Dickinson, San Jose, Calif.). Data were analyzed using Graphpad Prism software, and IC₅₀ values were reported as the concentration of antibody to achieve 50% reduction of Notch1 bound to DLL4 expressing cells.

mouse DLL4 on cells [3] = molecular target: T2, mouse DLL4 on cells (mouse, UniProt Q9JI71 27-686); assay: FACS, DLL4 cells
T2 construct: whole, on cells; also called mouse DLL4-293G; mu DLL4 cells
T2 sequence (Q9JI71 27-686): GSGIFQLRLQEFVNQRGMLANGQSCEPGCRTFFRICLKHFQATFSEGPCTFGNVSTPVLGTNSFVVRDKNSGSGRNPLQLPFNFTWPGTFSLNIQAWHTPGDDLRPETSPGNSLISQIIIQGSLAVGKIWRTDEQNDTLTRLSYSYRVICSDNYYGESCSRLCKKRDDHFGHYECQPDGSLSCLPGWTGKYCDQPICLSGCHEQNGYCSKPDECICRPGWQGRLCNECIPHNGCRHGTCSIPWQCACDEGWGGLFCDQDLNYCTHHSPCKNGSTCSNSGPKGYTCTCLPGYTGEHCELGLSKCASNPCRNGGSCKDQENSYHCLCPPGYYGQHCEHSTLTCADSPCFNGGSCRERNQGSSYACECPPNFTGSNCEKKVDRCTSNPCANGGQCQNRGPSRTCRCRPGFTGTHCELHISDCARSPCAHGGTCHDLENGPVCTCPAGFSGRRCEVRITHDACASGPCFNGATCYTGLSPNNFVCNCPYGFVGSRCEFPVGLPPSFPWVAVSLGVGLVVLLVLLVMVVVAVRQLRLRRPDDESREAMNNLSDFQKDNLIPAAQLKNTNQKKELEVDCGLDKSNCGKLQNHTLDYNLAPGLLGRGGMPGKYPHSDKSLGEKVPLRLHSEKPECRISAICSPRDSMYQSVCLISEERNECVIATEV

[4] = molecular target: T3, rat DLL4 extracellular domain (rat, UniProt D3ZHH1 28-530); assay: SPR (Biacore)
T3 construct: extracellular domain; also called ratDLL4 ECD
T3 sequence (D3ZHH1 28-530): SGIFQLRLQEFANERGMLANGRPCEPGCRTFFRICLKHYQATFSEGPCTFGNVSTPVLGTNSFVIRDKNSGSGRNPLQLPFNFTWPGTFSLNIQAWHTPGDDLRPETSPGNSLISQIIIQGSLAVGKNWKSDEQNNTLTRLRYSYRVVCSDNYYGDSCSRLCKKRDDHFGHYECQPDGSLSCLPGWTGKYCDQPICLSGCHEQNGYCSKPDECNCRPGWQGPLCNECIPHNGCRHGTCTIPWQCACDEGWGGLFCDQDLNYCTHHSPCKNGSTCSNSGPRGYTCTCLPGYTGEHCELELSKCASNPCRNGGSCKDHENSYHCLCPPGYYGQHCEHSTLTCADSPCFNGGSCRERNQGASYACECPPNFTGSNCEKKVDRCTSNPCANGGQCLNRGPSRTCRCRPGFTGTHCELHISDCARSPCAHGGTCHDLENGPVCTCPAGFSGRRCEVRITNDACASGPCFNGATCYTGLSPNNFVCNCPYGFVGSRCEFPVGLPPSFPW
Procedure, shortened: (§1)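 Purified anti-DLL4 antibodies (1 μg/ml) captured on immobilized goat anti-human Fc, with DLL4 ECD injected as analyte; HBS-EPB running buffer (pH 7.4), 25° C, referenced against capture-only surface. On/off rates from global 1:1 Langmuir fit; KD = Koff/Kon.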

[5] = molecular target: T4, mouse DLL4 extracellular domain (mouse, UniProt Q9JI71 27-532); assay: SPR (Biacore)
T4 construct: extracellular domain; also called muDLL4 ECD; murine DLL4
T4 sequence (Q9JI71 27-532): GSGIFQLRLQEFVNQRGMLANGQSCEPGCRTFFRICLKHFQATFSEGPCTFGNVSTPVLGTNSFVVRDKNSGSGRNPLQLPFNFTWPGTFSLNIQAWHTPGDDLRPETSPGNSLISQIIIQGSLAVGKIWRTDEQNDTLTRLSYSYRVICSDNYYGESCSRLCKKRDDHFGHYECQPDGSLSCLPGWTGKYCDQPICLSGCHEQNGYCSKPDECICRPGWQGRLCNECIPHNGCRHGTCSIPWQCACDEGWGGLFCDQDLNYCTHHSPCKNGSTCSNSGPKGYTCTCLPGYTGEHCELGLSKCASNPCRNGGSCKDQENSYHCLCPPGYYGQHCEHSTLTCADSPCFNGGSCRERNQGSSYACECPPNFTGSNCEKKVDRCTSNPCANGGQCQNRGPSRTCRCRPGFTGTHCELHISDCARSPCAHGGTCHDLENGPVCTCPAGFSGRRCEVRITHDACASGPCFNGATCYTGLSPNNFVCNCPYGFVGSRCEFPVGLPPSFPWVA
Procedure, shortened: as §1

[6] = molecular target: T5, human DLL4 extracellular domain (human, UniProt Q9NR61 27-529); assay: SPR (Biacore)
T5 construct: purified recombinant ECD; biotin-labelled or 6xHis-tagged depending on the assay; also called huDLL4 ECD; hu DLL4 ECD
T5 sequence (Q9NR61 27-529 limits assumed): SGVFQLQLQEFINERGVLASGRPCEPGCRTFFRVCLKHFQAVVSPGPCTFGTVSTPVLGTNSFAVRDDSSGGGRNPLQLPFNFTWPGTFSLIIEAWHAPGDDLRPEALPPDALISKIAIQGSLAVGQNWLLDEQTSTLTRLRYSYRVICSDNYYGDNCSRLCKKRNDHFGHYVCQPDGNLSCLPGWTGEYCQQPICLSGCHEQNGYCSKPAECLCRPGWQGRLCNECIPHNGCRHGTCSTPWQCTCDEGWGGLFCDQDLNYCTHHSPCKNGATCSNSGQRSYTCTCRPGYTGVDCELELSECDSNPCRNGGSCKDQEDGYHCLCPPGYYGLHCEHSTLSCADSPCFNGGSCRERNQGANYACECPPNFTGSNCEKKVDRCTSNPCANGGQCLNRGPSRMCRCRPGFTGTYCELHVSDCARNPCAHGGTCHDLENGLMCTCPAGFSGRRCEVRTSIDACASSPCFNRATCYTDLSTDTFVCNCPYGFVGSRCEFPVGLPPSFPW
Method: (§2) The BIACORE® surface plasmon resonance assay (Biacore, Inc., Piscataway, N.J., US) determines the affinity of antibodies with kinetic measurements of on-rate and off-rate constants. Binding of DLL4 antibodies to a purified recombinant DLL4 extracellular domain (ECD) was determined by surface plasmon resonance-based measurements with a Biacore® instrument (either a Biacore 2000, Biacore 3000, or Biacore T100; GE Healthcare, Piscataway, N.J., US) using running buffer HBS-EPB (10 mM HEPES [pH 7.4], 150 mM NaCl, 3 mM EDTA, 0.1 mg/ml BSA and 0.005% surfactant P20) at 25° C. For example, approximately 9000 RU of goat anti-human Fc specific polyclonal antibody (Thermo Fisher Scientific Inc., Rockford, Ill., US) diluted in 10 mM sodium acetate (pH 4.5) is directly immobilized across a CMS research grade biosensor chip using a standard amine coupling kit according to manufacturer's instructions and procedures at 25 μg/ml. Unreacted moieties on the biosensor surface were blocked with ethanolamine. For kinetic analysis, rate equations derived from the 1:1 Langmuir binding model were fitted simultaneously to multiple antigen injections (using global fit analysis) with the use of Scrubber 2 (BioLogic Software), Biacore Biaevaluation 4.0.1 software or Biacore T100 Evaluation software. Purified antibodies were diluted in running buffer for capture across goat anti-human Fc reaction surfaces. Antibodies to be captured as a ligand (1 μg/ml) were injected over reaction matrices at a flow rate of 10 μl/min. During the assay, all measurements were referenced against the capture surface alone (i.e., with no captured anti-DLL4 antibody). […] The equilibrium dissociation constant KD (M) of the reaction between antibodies and the target antigen was then calculated from the kinetic rate constants by the following formula: KD=Koff/Kₒₙ. Binding was recorded as a function of time and kinetic rate constants were calculated.

[7] = molecular target: T4, mouse DLL4 extracellular domain; assay: SPR (Biacore); remark: listed apart in the source
Method: as §2

[8] = molecular target: T5, human DLL4 extracellular domain; assay: competition ELISA vs Notch-1
Method: (§3) Plates were then washed 3 times with wash buffer (PBS, 0.05% Tween-20) and blocked with 200 μl/well blocking buffer (D-PBS, 1% BSA, 1 mM CaCl₂, 0.05% Tween-20) for 1 hour at 25° C. While blocking, biotin labeled DLL4 extracellular domain (14 nM) was mixed with antibody (30 pM-66 nM, 3-fold serial dilution in blocking buffer) for 1 hour at 25° C. with shaking. Assay plates were washed after blocking, and incubated with DLL4/antibody mixtures (100 μl/well, 1 hour at 25° C. with shaking). Plates were washed again and 100 μl/well streptavidin conjugated with HRP (Fitzgerald #65R-S104PHRPx, diluted 1:5,000 in blocking buffer) was added for 1 hour at 25° C. with shaking. After a final wash, plates were developed using 100 μl/well substrate (TMB Sigma #T8665), and the reaction was stopped using 100 μl/well 1N HCl, and the absorbance was read at 450 nm. Data were analyzed using Graphpad Prism software and IC₅₀ values were reported as the concentration of antibody to achieve 50% reduction of DLL4 bound to Notch1.
(§4) Purified variants were further characterized for their affinities for human, murine and cynomolgus DLL4 by binding ELISA (Example 1.2, Method 2), by Biacore (Example 1.1), and by Flow Cytometry (FACS). […] The humanized variants were then tested for their functionality with human and murine DLL4 by competition ELISA (Example 1.3) and by Notch reporter assay (Example 1.6).

[9] = molecular target: T4, mouse DLL4 extracellular domain; assay: competition ELISA vs Notch-1
Method: as §3, §4

mouse DLL4 on cells [10] = molecular target: T2, mouse DLL4 on cells; assay: FACS, DLL4 cells; remark: listed apart in the source
[11] = molecular target: T1, human DLL4, full length, on cells; assay: FACS, DLL4 cells; remark: listed apart in the source
[12] = molecular target: T5, human DLL4 extracellular domain; assay: SPR (Biacore); remark: listed apart in the source
Procedure, shortened: as §1

[13] = molecular target: T6, cynomolgus monkey DLL4 extracellular domain (cynomolgus monkey); assay: SPR (Biacore)
T6 construct: extracellular domain; also called cynoDLL4 ECD; Cyno DLL4
Procedure, shortened: as §1

[14] = molecular target: T1, human DLL4, full length, on cells; assay: cell-based or functional assay
[15] = molecular target: T5, human DLL4 extracellular domain; assay: binding ELISA
Method: (§5) Plates were then washed 3 times. 100 μl/well of recombinant rat/human chimeric or recombinant human anti-DLL4 antibodies were then added to the plate (0.00164-27 nM, 4-fold serial dilution in ELISA buffer=PBST, 10% Superblock (Pierce #37515)) for 1 hour at 25° C. with shaking and then washed again 3 times. Plates were incubated with goat anti-human HRP (Pierce #31412) (1:40,000 dilution in ELISA buffer, 100 μl/well) for 1 hour at 25° C. with shaking, then washed 3 times. After the final wash, plates were incubated with 100 μl/well ELISA substrate (Sigma #T8665). The reaction was stopped after 8 minutes at 25° C. with 100 μl/well 1N HCl and the absorbance was read at 450 nm. Data were analyzed using Graphpad Prism software, and EC50 values were reported.
as §4

[16] = molecular target: T6, cynomolgus monkey DLL4 extracellular …; assay: binding ELISA
Method: as §5, §4

[17] = molecular target: T4, mouse DLL4 extracellular domain; assay: binding ELISA
Method: as §5, §4

T1 sequence (Q9NR61 27-685 limits assumed): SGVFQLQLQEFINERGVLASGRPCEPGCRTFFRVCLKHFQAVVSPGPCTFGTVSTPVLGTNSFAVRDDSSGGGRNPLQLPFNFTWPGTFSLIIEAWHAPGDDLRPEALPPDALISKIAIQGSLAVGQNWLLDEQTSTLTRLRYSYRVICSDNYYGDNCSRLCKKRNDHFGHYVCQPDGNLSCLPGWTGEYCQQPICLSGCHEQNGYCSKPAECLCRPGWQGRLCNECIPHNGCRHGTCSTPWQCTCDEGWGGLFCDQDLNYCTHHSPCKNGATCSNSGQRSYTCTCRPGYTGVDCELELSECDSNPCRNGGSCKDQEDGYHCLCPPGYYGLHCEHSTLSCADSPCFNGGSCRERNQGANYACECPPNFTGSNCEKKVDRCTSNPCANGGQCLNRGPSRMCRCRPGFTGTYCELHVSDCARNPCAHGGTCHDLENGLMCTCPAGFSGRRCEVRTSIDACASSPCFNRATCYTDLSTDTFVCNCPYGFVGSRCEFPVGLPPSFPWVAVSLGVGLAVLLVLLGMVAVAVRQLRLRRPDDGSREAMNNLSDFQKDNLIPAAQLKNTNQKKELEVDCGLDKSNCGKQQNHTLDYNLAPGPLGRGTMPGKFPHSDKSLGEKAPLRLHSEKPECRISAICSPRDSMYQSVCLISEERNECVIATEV

B1: 38H12 chimeric antibody (antibody, human IgG1, V domains shown)
VH: EVQLVESGGGLVQPGRSLKLSCAASGFTFSNYGMYWIRQAPTKGLQWVAFISHGGGITYYRDSVKGRFTISRDNAKSTLYLQMDSLRSEDTATYHCAALNWELGIDYWGQGVMVTVSS
VL: DIQMTQSPASLSASLGETISIECRASEDIYSNLAWYQKKSGKSPQLLIYAANRLQDGVPSRFSGSGSGTQYSLKISGMQPEDEGDYFCLQGSKFPLTFGSGTKLEIKR
notes: also called Chimera of 38H12
- EC50 [1]: 1470 pM
- IC50 [2]: 1440 pM

B2: 32C7 chimeric antibody (antibody, human IgG1, V domains shown)
VH: EVQLVESGGGLVQPGRSLKLSCLASGFPFSSVWMTWIRQAPGKGLEWIATITNSGASTYYSASVKGRFTISRDNVKSTLYLQMTSLGSEDTATYYCTRVGTSFDYWGQGVMVTVSS
VL: DIQMTQSPASLSASLGETVTIECRASDDIYNGLAWFQQKPGKSPQLLIYDANTLHTGVPSRFSGSGSGTQFSLKINSLQSEDVASYFCQQFYDYPPYTFGAGTKLELKR
notes: also called Chimera of 32C7
- EC50 (mouse DLL4 on cells [3]): 4110 pM
- EC50 [1]: 3710 pM

B3: h1A11.1 (antibody, V domains shown)
VH: EVQLVESGGGLVQPGGSLRLSCAASGFTFSNFPMAWVRQAPGKGLEWVATISSSDGTTYYRDSVKGRFTISRDNAKNSLYLQMNSLRAEDTAVYYCARGYYNSPFAYWGQGTLVTVSS
VL: DIQMTQSPSSLSASVGDRVTITCRASEDIYSNLAWYQQKPGKAPKLLIYDTNNLADGVPSRFSGSGSGTDFTLTISSLQPEDFATYYCQQYNNYPPTFGQGTKLEIKR
notes: humanized IgG; also called hu1A11.1; VH.1/VL.1 1A11
- binding result [4]: no binding
- Kd [5]: 32000 pM
- koff [5]: 0.00498 s⁻¹
- kon [5]: 156000 M⁻¹ s⁻¹
- Kd [6]: 15000 pM
- Kd [7]: 38000 pM
- IC50 [8]: 400 pM
- IC50 [9]: 1300 pM
- EC50 (mouse DLL4 on cells [10]): 210 pM
- EC50 [11]: 3130 pM
- Kd [12]: 13000 pM
- koff [12]: 0.00212 s⁻¹
- kon [12]: 158000 M⁻¹ s⁻¹
- Kd [13]: 18000 pM
- koff [13]: 0.00255 s⁻¹
- kon [13]: 144000 M⁻¹ s⁻¹
- Reporter Assay (EC50, nM) [14]: 2.53 nM
- EC50 [15]: 80 pM
- EC50 [16]: 130 pM
- EC50 [17]: 90 pM

B4: h1A11.3 (antibody, V domains shown)
VH: B3 VH
VL: B3 VL with Y49F
notes: humanized IgG; also called VH.1/VL.1b 1A11
- Kd [6]: 15000 pM
- Kd [7]: 37000 pM
- IC50 [8]: 200 pM
- IC50 [9]: 900 pM
- EC50 (mouse DLL4 on cells [10]): 240 pM
- EC50 [11]: 3510 pM
- Reporter Assay (EC50, nM) [14]: 2.53 nM
- EC50 [15]: 70 pM
- EC50 [16]: 160 pM
- EC50 [17]: 80 pM

B5: h1A11.8 (antibody, V domains shown)
VH: B3 VH with N77S, A97S
VL: EIVMTQSPATLSVSPGERATLSCRASEDIYSNLAWYQQKPGQSPRLLIFDTNNLADGVPARFSGSGSGTESTLTISSLQSEDFAVYFCQQYNNYPPTFGQGTKLEIKR
notes: humanized IgG; also called VH.1a/VL.2a 1A11
- Kd [6]: 11000 pM
- Kd [7]: 24000 pM
- IC50 [8]: 350 pM
- IC50 [9]: 900 pM
- EC50 (mouse DLL4 on cells [10]): 180 pM
- EC50 [11]: 3340 pM
- Reporter Assay (EC50, nM) [14]: 4.24 nM
- EC50 [15]: 60 pM
- EC50 [16]: 170 pM
- EC50 [17]: 90 pM

B6: h1A11.9 (antibody, V domains shown)
VH: B3 VH with A97S
VL: B3 VL
notes: humanized IgG; also called VH.1b/VL.1 1A11
- Kd [6]: 13000 pM
- Kd [7]: 34000 pM
- IC50 [8]: 300 pM
- IC50 [9]: 900 pM
- EC50 (mouse DLL4 on cells [10]): 180 pM
- EC50 [11]: 3280 pM
- Reporter Assay (EC50, nM) [14]: 3.18 nM
- EC50 [15]: 70 pM
- EC50 [16]: 150 pM
- EC50 [17]: 90 pM

B7: h1A11.4 (antibody, V domains shown)
VH: B3 VH
VL: B5 VL
notes: humanized IgG; also called VH.1/VL.2a 1A11
- Kd [6]: 16000 pM
- Kd [7]: 39000 pM
- IC50 [8]: 300 pM
- IC50 [9]: 900 pM
- EC50 (mouse DLL4 on cells [10]): 220 pM
- EC50 [11]: 3610 pM
- Reporter Assay (EC50, nM) [14]: 3.28 nM
- EC50 [15]: 80 pM
- EC50 [16]: 170 pM
- EC50 [17]: 90 pM

B8: 14G1 chimeric antibody (antibody, human IgG1, V domains shown)
VH: EVQLQQSGAELAKPGSSVKISCKASGYTFTNYDISWIKQTNGQGLEYLGYINTGSGGIYSNEKFKGKATLTVDKSSNTAFMQLSSLTPEDTAVYYCVREGNNFDHWGQGVKVTVSS
VL: DTVMTQSPASMSTSVGERVTVNCKASQSVGTIVAWFQQKPGQSPKRLIYLATYRHTGVPDRFIGSGFGRDFTLTISNVEAEDLAVYYCLQYGSRPFTFGAGTKLEIKR
notes: also called Chimera of 14G1
- EC50 [1]: 994 pM
- IC50 [2]: 4110 pM
